Bridge positions count the residues as written; N and C are the ends. Ends that are not written are not given here. * marks the point of attachment. Biotin = O=C1N[C@H]2[C@H](CS[C@H]2CCCCC(=O)*)N1
B1: IR485 construct of human insulin receptor (receptor)
chain: HLYPGEVCPGMDIRNNLTRLHELENCSVIEGHLQILLMFKTRPEDFRDLSFPKLIMITDYLLLFRVYGLESLKDLFPNLTVIRGSRLFFNYALVIFEMVHLKELGLYNLMNITRGSVRIEKNNELCYLATIDWSRILDSVEDNHIVLNKDDNEECGDICPGTAKGKTNCPATVINGQFVERCWTHSHCQKVCPTICKSHGCTAEGLCCHSECLGNCSQPDDPTKCVACRNFYLDGRCVETCPPPYYHFQDWRCVNFSFCQDLHHKCKNSRRQGCHQYVIHNNKCIPECPSGYTMNSSNLLCTPCLGPCPKVCHLLEGEKTIDSVTSAQELRGCTVINGSLIINIRGGNNLAAELEANLGLIEEISGYLKIRRSYALVSLSFFRKLRLIRGETLEIGNYSFYALDNQNLRQLWDWSKHNLTTTQGKLFFHYNPKLCLSEIHKMEEVSGTKGRQERNDIALKTNGDKASCENELLKFSYIRTSFDKISDDDDKEQKLISEEDLN
notes: The tag was not removed for ITC; Expressed in Lec8 mutant CHO cells; also called insulin mini-receptor IR485; first three domains of IR (L1-CR-L2)

Tests used:
[1] = biological target: T1, Zinc-free porcine insulin (porcine, UniProt P01315 88-108; P01315 25-54); assay: ITC, 25 °C, IR αCT peptide 200 µM titrated into ZFP-insulin 20 µM
T1 construct: mature; Made zinc-free by dialysis against 0.1% acetic acid and lyophilisation; also called ZFP-insulin
T1 sequence (P01315 88-108 limits assumed, chain 1 of 2): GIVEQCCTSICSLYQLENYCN
T1 sequence (P01315 25-54 limits assumed, chain 2 of 2): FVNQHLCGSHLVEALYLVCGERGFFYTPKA
Method: (§1) ITC experiments were performed using a VP-ITC isothermal titration calorimeter (MicroCal Inc., USA) with the calorimeter cell held at 25° C. All samples were degassed prior to injection or placement into the cell, and the instrument was temperature equilibrated prior to the start of the injections. In all experiments the volume of sample placed in the cell was 1.4 ml and the titrant was injected in 7 μl volumes over 14 s at 3 min intervals, with the total number of injections being 40. The sample contents were stirred at a speed of 310 rpm over the duration of the titration. […] Data were analyzed using the instrument's software incorporated within the Origin 7 software (OriginLab, USA) and in all cases fitted as a single-site interaction using the methodologies outlined in the instrument's manual.

[2] = biological target: B1; assay: ITC, 25 °C, peptide titrated into IR485, single-site fit, mean of three
Method: as §1

[3] = biological target: T1, Zinc-free porcine insulin; assay: ITC, 25 °C, hormone titrated into IR485 pre-mixed with 10-fold IGF-1R αCT peptide
Method: as §1

Human IGF-I [4] = biological target: T2, Human IGF-I (human, UniProt P05019 49-118); assay: ITC, 25 °C, IGF-I titrated into IR485 pre-mixed with 10-fold IGF-1R αCT peptide
T2 construct: mature
Method: as §1

[5] = biological target: T1, Zinc-free porcine insulin; assay: ITC, 25 °C, hormone titrated into IR485 pre-mixed with 10-fold IR αCT peptide
Method: as §1

Human IGF-I [6] = biological target: T2, Human IGF-I; assay: ITC, 25 °C, IGF-I titrated into IR485 pre-mixed with 10-fold IR αCT peptide
Method: as §1

Human IGF-I [7] = biological target: T2, Human IGF-I; assay: ITC, 25 °C, IGF-1R αCT peptide 200 µM titrated into IGF-I 20 µM
Method: as §1

[8] = biological target: B1; assay: ITC, 25 °C, peptide titrated into IR485
[9] = biological target: B1; assay: ITC, 25 °C, S519C16 titrated into IR485 pre-mixed with a 10-fold molar ratio of IR αCT peptide (competitor)
Method: as §1

[10] = biological target: B1; assay: ITC, 25 °C, S519C16 titrated into IR485 pre-mixed with a 10-fold molar ratio of IR αCT peptide (competitor); apparent Kd; IR485 in the presence of a 10-fold molar ratio of IR αCT peptide
Method: as §1

[11] = biological target: B1; assay: ITC, 25 °C, S519N20 50 µM titrated into IR485 5 µM
Method: as §1

Human IGF-I [12] = biological target: T2, Human IGF-I; assay: ITC, 25 °C, IGF-I 100 µM titrated into IR485 10 µM
Method: as §1

[13] = biological target: T1, Zinc-free porcine insulin; assay: ITC, 25 °C, ZFP-insulin 50 µM titrated into IR485 5 µM
Method: as §1

[14] = biological target: B1; assay: ITC, about 25 °C, peptide titrated into IR485
Method: (§2) The insulin mini-receptor IR485 construct was produced and purified as previously described (Lou et al., 2006), omitting the final ion-exchange chromatography step. Isothermal titration calorimetry (ITC) experiments were performed using a VP-ITC isothermal titration calorimeter (MicroCal Inc., USA) with the calorimeter cell held at about 25° C. The ITC cell contained insulin mini-receptor IR485 prepared at about 10 μM concentration in Tris-buffered saline plus azide (TBSA; about 24.8 mM Tris-HCl (pH 8.0), 137 mM NaCl, 2.7 mM KCl, and 0.02% sodium azide), and the syringe contained the peptide prepared at about 60 μM concentration in TBSA. All samples were degassed prior to injection or placement into the cell, and the instrument was temperature equilibrated prior to the start of the injections.
(§3) In all experiments the volume of the insulin mini-receptor IR485 sample placed in the cell was about 1.4 ml and the titrant was injected in about 7 μl volumes over 14 s at 3 min intervals, with the total number of injections being 40. The sample contents were stirred at a speed of about 310 rpm over the duration of the titration. All titrants were first injected into a solution of TBSA alone in order ascertain the heat of dilution, which was then subtracted from the data of interest as appropriate. Each experiment was performed three times, except for that employing the native peptide, which was performed twice. Data were analyzed using the instrument's software incorporated within the Origin 7 software (OriginLab, USA) and in all cases fitted as a single-site interaction using the methodologies outlined in the instrument's manual.

[15] = biological target: B1; assay: ITC, about 25 °C, peptide about 60 µM titrated into IR485 about 10 µM
Method: as §2, §3

[16] = biological target: B1; assay: ITC, mutant αCT peptides 698-719 titrated into IR485
Method: as §2
as §3, with “All titrants were first injected into a solution of TBSA alone in order ascertain the heat of dilution, which was then subtracted from the data of interest as appropriate. Each experiment was performed three times, except for that employing the native peptide, which was performed twice.” left out

Row | Binder | TΔS° [14] | ΔG° [14] | ΔH° [14] | Kd [15] | also measured
1 | TFEDYLHNVVFVPRPS (Mature IR-A numbering; also called IR αCT; IR-αCT) [IR classical α-chain C-terminal peptide (residues 704-719)] |  |  |  |  | Kd [1]: > 1 mM; Kd [2]: 3.9 µM
2 | TFEDYLHNVVAVPRPS (also called IR αCT.714A; IR-αCT.714A) [F714A mutant of the IR classical αCT peptide] |  |  |  |  | Kd [2]: 6.5 µM
3 | IR485 pre-complexed with a 10-fold molar ratio of IGF-1R classical αCT peptide (other, Non-covalent receptor fragment and peptide mixture in the ITC cell; also called IR485 + (10 × IGF1R-αCT)) HLYPGEVCPGMDIRNNLTRLHELENCSVIEGHLQILLMFKTRPEDFRDLSFPKLIMITDYLLLFRVYGLESLKDLFPNLTVIRGSRLFFNYALVIFEMVHLKELGLYNLMNITRGSVRIEKNNELCYLATIDWSRILDSVEDNHIVLNKDDNEECGDICPGTAKGKTNCPATVINGQFVERCWTHSHCQKVCPTICKSHGCTAEGLCCHSECLGNCSQPDDPTKCVACRNFYLDGRCVETCPPPYYHFQDWRCVNFSFCQDLHHKCKNSRRQGCHQYVIHNNKCIPECPSGYTMNSSNLLCTPCLGPCPKVCHLLEGEKTIDSVTSAQELRGCTVINGSLIINIRGGNNLAAELEANLGLIEEISGYLKIRRSYALVSLSFFRKLRLIRGETLEIGNYSFYALDNQNLRQLWDWSKHNLTTTQGKLFFHYNPKLCLSEIHKMEEVSGTKGRQERNDIALKTNGDKASCENELLKFSYIRTSFDKISDDDDKEQKLISEEDLN peptide: VFENFLHNSIFVPRPE |  |  |  |  | Kd [3]: 5.7 nM; Kd (Human IGF-I [4]): 22 nM
4 | IR485 pre-complexed with a 10-fold molar ratio of IR classical αCT peptide (other, Non-covalent receptor fragment and peptide mixture in the ITC cell; also called IR485 + (10 × IR-αCT)) HLYPGEVCPGMDIRNNLTRLHELENCSVIEGHLQILLMFKTRPEDFRDLSFPKLIMITDYLLLFRVYGLESLKDLFPNLTVIRGSRLFFNYALVIFEMVHLKELGLYNLMNITRGSVRIEKNNELCYLATIDWSRILDSVEDNHIVLNKDDNEECGDICPGTAKGKTNCPATVINGQFVERCWTHSHCQKVCPTICKSHGCTAEGLCCHSECLGNCSQPDDPTKCVACRNFYLDGRCVETCPPPYYHFQDWRCVNFSFCQDLHHKCKNSRRQGCHQYVIHNNKCIPECPSGYTMNSSNLLCTPCLGPCPKVCHLLEGEKTIDSVTSAQELRGCTVINGSLIINIRGGNNLAAELEANLGLIEEISGYLKIRRSYALVSLSFFRKLRLIRGETLEIGNYSFYALDNQNLRQLWDWSKHNLTTTQGKLFFHYNPKLCLSEIHKMEEVSGTKGRQERNDIALKTNGDKASCENELLKFSYIRTSFDKISDDDDKEQKLISEEDLN peptide: TFEDYLHNVVFVPRPS |  |  |  |  | Kd [5]: 17 nM; Kd (Human IGF-I [6]): 490 nM
5 | VFENFLHNSIFVPRPE (Mature IGF-1R numbering; also called IGF-1R αCT; IGF1R-αCT) [IGF-1R classical α-chain C-terminal peptide (residues 691-706)] |  |  |  |  | Kd (Human IGF-I [7]): > 1 mM; Kd [2]: 17.6 µM
6 | SLEEEWAQVECEVYGRGCPSGSLDESFYDWFERQLG (disulfide 11-18 (inferred), 36-residue synthetic peptide, Activotec, >85% purity; also called insulin mimetic peptide S519) [S519 peptide] |  |  |  |  | -TΔS^0 [8]: 24 kJ/mol; Kd [8]: 11 nM; ΔH^0 [8]: -69 kJ/mol
7 | GSLDESFYDWFERQLG (Synthetic peptide, AusPep, >90% purity; also called Site 1 peptide, the 16 C-terminal residues of S519) [S519C16 peptide] |  |  |  |  | -TΔS^0 [8]: 12 kJ/mol; Kd [8]: 2.6 nM; ΔH^0 [8]: -61 kJ/mol; -TΔS^0 [9]: -11 kJ/mol; ΔH^0 [9]: -33 kJ/mol; Kd [10]: 16 nM
8 | SLEEEWAQVECEVYGRGCPS (disulfide 11-18 (inferred), Synthetic peptide, AusPep, >90% purity; also called Site 2 peptide, the 20 N-terminal residues of S519) [S519N20 peptide] |  |  |  |  | Kd [11]: > 1 mM
9 | B1 |  |  |  |  | Kd (Human IGF-I [12]): > 1 mM; Kd [13]: > 1 mM
10 | Biotin-ESSFRKTFEDYLHNVVFVPRPS (Genscript, >75% purity; also called wt; native peptide) [N-terminally biotinylated IR αCT peptide 698-719, wild type] | -14 kJ/mol | -33.5 kJ/mol | -48 kJ/mol | 1340 nM | 
11 | Biotin-ESSFWKTFEDYLHNVVFVPRPS [N-terminally biotinylated IR αCT peptide 698-719, R702W] | -3 kJ/mol | -37.2 kJ/mol | -35 kJ/mol | 309 nM | 
12 | Biotin-ESSFYKTFEDYLHNVVFVPRPS [N-terminally biotinylated IR αCT peptide 698-719, R702Y] | -12 kJ/mol | -37.7 kJ/mol | -50 kJ/mol | 249 nM | 
13 | Biotin-ESSFYKWFEDYLHNVVFVPRPS [N-terminally biotinylated IR αCT peptide 698-719, R702Y/T704W] | -5 kJ/mol | -44.2 kJ/mol | -49 kJ/mol | 18 nM | fold increase in affinity against the wild type peptide [16]: ≤ 100 fold
14 | Biotin-ESSFRKWFEDYLHNVVFVPRPS [N-terminally biotinylated IR αCT peptide 698-719, T704W] | 11 kJ/mol | -38.2 kJ/mol | -26 kJ/mol | 201 nM | 
15 | Biotin-ESSFRKYFEDYLHNVVFVPRPS [N-terminally biotinylated IR αCT peptide 698-719, T704Y] | -11 kJ/mol | -35 kJ/mol | -46 kJ/mol | 740 nM | 

— patent US20140154817A1 (WALTER AND ELIZA HALL INSTITUTE OF MEDICAL RESEARCH, published 2014)
